Reference: patent publication US20230030674A1 (SOTIO BIOTECH A S, published 2023)

Assays:
huCLDN18.2 [1] = molecular target: T1, huCLDN18.2 (human, UniProt P56856-2 1-261); assay: flow cytometry titration on PA-TU-8988S-High cells (endogenous CLDN18.2)
T1 construct: whole, on cells; Full-length huCLDN18.2 stably overexpressed in HEK293T cells (pPB-Puro-huCldn18.2); also called human CLDN18.2
Description: (§1) A PE-coupled secondary anti-human IgG antibody was added to the cells for additional 30 min at 4° C. after washes with the FACS buffer, followed by further washes with FC buffer. The cells were then resuspended in 100 μl FC buffer and measured with a FACSCalibur™ cell analyzer (BD Biosciences, USA).

huCLDN18.2 [2] = molecular target: T1, huCLDN18.2; assay: flow cytometry titration on HEK293T cells overexpressing CLDN18.2
Description: as §1

Row | Binder | EC50 (huCLDN18.2 [1]) [µg/mL] | Max MFI (huCLDN18.2 [1]) [MFI] | EC50 (huCLDN18.2 [2]) [µg/mL] | Max MFI (huCLDN18.2 [2]) [MFI]
1 | hGBA-1 (antibody, human IgG1, kappa, V domains shown, Humanized IgG1; X and chain(s) not specified, so tags not built in) VH: EVQLVQSGAEVKKPGESLKISCKGSGYSFTSYWIGWVRQMPGKGLEWMGNIYPGASDTRYAPSFQGQVTISADKSISTAYLQWSSLKASDTAMYYCARLWRGNSFDYWGQGTLVTVSS VL: not shown | 0.444 | 2530 | 0.259 | 3030
2 | hGBA-7 (antibody, human IgG1, kappa, V domains shown, Humanized IgG1; X and chain(s) not specified, so tags not built in) VH: EVQLVQSGAEVKKPGESLKISCKGSGYSFTSYWIGWVRQMPGKGLEWMGNIYPGEAYTRYSPSFQGQVTISADKSISTAYLQWSSLKASDTAMYYCTRLWRGNSFDYWGQGTLVTVSS VL: not shown | 0.323 | 2320 | 0.42 | 3250
3 | hGBA-5 (antibody, human IgG1, kappa, V domains shown, Humanized IgG1; X and chain(s) not specified, so tags not built in) VH: EVQLVQSGAEVKKPGESLKISCKGSGYSFTSYWIGWVRQMPGKGLEWMGIIYPGAAYTRYAPSFQGQVTISADKSISTAYLQWSSLKASDTAMYYCARLWRGNSFDYWGQGTLVTVSS VL: not shown | 0.159 | 2560 | 0.305 | 3320
4 | hGBA-3 (antibody, human IgG1, kappa, V domains shown, Humanized IgG1; X and chain(s) not specified, so tags not built in) VH: EVQLVQSGAEVKKPGESLKISCKGSGYSFTSYWIGWVRQMPGKGLEWMGIIYPGASDTNYAPSFQGQVTISADKSISTAYLQWSSLKASDTAMYYCARIWRGNSFDYWGQGTLVTVSS VL: DIVMTQSPDSLAVSLGERATINCKSSQSLLNSGNQKNYLAWYQQKPGQPPKLLIYWASTRESGVPDRFSGSGSGTDFTLTISSLQAEDVAVYYCQNDYSYPLTFGQGTKVEIKR | 0.352 | 2160 | 0.273 | 2750
5 | hGBA-8 (antibody, human IgG1, kappa, V domains shown, Humanized IgG1; X and chain(s) not specified, so tags not built in) VH: EVQLVQSGAEVKKPGESLKISCKGSGYSFTSYWIGWVRQMPGKGLEWMGNIYPSESYTNYAPSFQGQVTISADKSISTAYLQWSSLKASDTAMYYCTRLWRGNSFDYWGQGTLVTVSS VL: not shown | 0.303 | 2370 | 0.187 | 2700
6 | hGBA-2 (antibody, human IgG1, kappa, V domains shown, Humanized IgG1; X and chain(s) not specified, so tags not built in) VH: EVQLVQSGAEVKKPGESLKISCKGSGYSFTSYWIGWVRQMPGKGLEWMGNIYPGDADTRYAPSFQGQVTISADKSISTAYLQWSSLKASDTAMYYCARMWRGNSFDYWGQGTLVTVSS VL: not shown | 0.584 | 2400 | 0.249 | 2970
7 | hGBA-9 (antibody, human IgG1, kappa, V domains shown, Humanized IgG1; X and chain(s) not specified, so tags not built in) VH: EVQLVQSGAEVKKPGESLKISCKGSGYTFTSYWIGWVRQMPGKGLEWMGIIYPSAAYTRYAPSFQGQVTISADKSISTAYLQWSSLKASDTAMYYCTRMWRGNSFDYWGQGTLVTVSS VL: not shown | 0.286 | 2440 | 0.241 | 3120
8 | hGBA-4 (antibody, human IgG1, kappa, V domains shown, Humanized IgG1; X and chain(s) not specified, so tags not built in) VH: EVQLVQSGAEVKKPGESLKISCKGSGYSFTSYWIGWVRQMPGKGLEWMGIIYPGDAYTRYSPSFQGQVTISADKSISTAYLQWSSLKASDTAMYYCTRLWRGNSFDAWGQGTLVTVSS VL: DIVMTQSPDSLAVSLGERATINCKSSQSLLNSGNQKNYLTWYQQKPGQPPKLLIYWASTRESGVPDRFSGSGSGTDFTLTISSLQAEDVAVYYCQNDYSYPLTFGQGTKVEIKR | 0.412 | 2010 | 0.357 | 2790
9 | hGBA-6 (antibody, human IgG1, kappa, V domains shown, Humanized IgG1; X and chain(s) not specified, so tags not built in) VH: EVQLVQSGAEVKKPGESLKISCKGSGYTFTSYWIGWVRQMPGKGLEWMGNIYPGASYTRYSPSFQGQVTISADKSISTAYLQWSSLKASDTAMYYCTRQWRGNSFDYWGQGTLVTVSS VL: not shown | 0.191 | 2240 | 0.257 | 2890
10 | IMAB362 (antibody, human IgG1, kappa, V domains shown, X and which chain(s) are not specified, so the tags are not built in; also called Claudiximab; Zolbetuximab) VH: QVQLQQPGAELVRPGASVKLSCKASGYTFTSYWINWVKQRPGQGLEWIGNIYPSDSYTNYNQKFKDKATLTVDKSSSTAYMQLSSPTSEDSAVYYCTRSWRGNSFDYWGQGTTLTVSS VL: DIVMTQSPSSLTVTAGEKVTMSCKSSQSLLNSGNQKNYLTWYQQKPGQPPKLLIYWASTRESGVPDRFTGSGSGTDFTLTISSVQAEDLAVYYCQNDYSYPFTFGSGTKLEIKR | 0.508 | 1050 | 0.388 | 1970
